# ± gives the uncertainty stated by the source.
# B1: KAT8 regulatory NSL complex subunit 2, residues 28 to 91; numbered along this chain, Q9H9L4 (parent)
# chain: CAFTHRPCSHPRLEGQEFCIKHILEDKNAPFKQCSYISTKNGKRCPNAAPKPEKKDGVSFCAEH
# Variants of: B1
# Experiment: abundance fitness (aPCA) (normalised: wild type 0, dead -1); higher = more abundant; growth selection in yeast, the domain comes from the species named
# Details: Homo sapiens
row,Variant,abundance fitness
1,CAFTHRPCSHPRLEGQEFCIKHILEDKNAPFKQCSYISTKNGKRCPNIAPKPEKKDGVSFCAEH [A48I],-0.204 ± 0.065
2,CAFTHRPCSHPRLEGQEFCIKHILEDKNAPFKQCSYISTKNGKRCPNLAPKPEKKDGVSFCAEH [A48L],-0.16 ± 0.046
3,CAFTHRPCSHPRLEGQEFCIKHILEDKNAPFKQCSYISTKNGKRCPNMAPKPEKKDGVSFCAEH [A48M],-0.159 ± 0.053
4,CAFTHRPCSHPRLEGQEFCIKHILEDKNAPFKQCSYISTKNGKRCPNNAPKPEKKDGVSFCAEH [A48N],-0.293 ± 0.098
5,CAFTHRPCSHPRLEGQEFCIKHILEDKNAPFKQCSYISTKNGKRCPNSAPKPEKKDGVSFCAEH [A48S],-0.168 ± 0.051
6,CAFTHRPCSHPRLEGQEFCIKHILEDKNAPFKQCSYISTKNGKRCPNEAPKPEKKDGVSFCAEH [A48E],-0.28 ± 0.074
7,CAFTHRPCSHPRLEGQEFCIKHILEDKNAPFKQCSYISTKNGKRCPNPAPKPEKKDGVSFCAEH [A48P],-0.079 ± 0.054
8,CAFTHRPCSHPRLEGQEFCIKHILEDKNAPFKQCSYISTKNGKRCPNCAPKPEKKDGVSFCAEH [A48C],-0.078 ± 0.092
9,CAFTHRPCSHPRLEGQEFCIKHILEDKNAPFKQCSYISTKNGKRCPNVAPKPEKKDGVSFCAEH [A48V],-0.178 ± 0.056
10,CAFTHRPCSHPRLEGQEFCIKHILEDKNAPFKQCSYISTKNGKRCPNFAPKPEKKDGVSFCAEH [A48F],-0.204 ± 0.075
11,CAFTHRPCSHPRLEGQEFCIKHILEDKNAPFKQCSYISTKNGKRCPNRAPKPEKKDGVSFCAEH [A48R],-0.166 ± 0.045
12,CAFTHRPCSHPRLEGQEFCIKHILEDKNAPFKQCSYISTKNGKRCPNHAPKPEKKDGVSFCAEH [A48H],-0.336 ± 0.19
13,CAFTHRPCSHPRLEGQEFCIKHILEDKNAPFKQCSYISTKNGKRCPNQAPKPEKKDGVSFCAEH [A48Q],-0.238 ± 0.058
14,CAFTHRPCSHPRLEGQEFCIKHILEDKNAPFKQCSYISTKNGKRCPCAAPKPEKKDGVSFCAEH [N47C],-0.029 ± 0.089
15,CAFTHRPCSHPRLEGQEFCIKHILEDKNAPFKQCSYISTKNGKRCPRAAPKPEKKDGVSFCAEH [N47R],-0.062 ± 0.065
16,CAFTHRPCSHPRLEGQEFCIKHILEDKNAPFKQCSYISTKNGKRCPEAAPKPEKKDGVSFCAEH [N47E],-0.049 ± 0.06
17,CAFTHRPCSHPRLEGQEFCIKHILEDKNAPFKQCSYISTKNGKRCPMAAPKPEKKDGVSFCAEH [N47M],-0.074 ± 0.06
18,CAFTHRPCSHPRLEGQEFCIKHILEDKNAPFKQCSYISTKNGKRCPDAAPKPEKKDGVSFCAEH [N47D],0.017 ± 0.066
19,CAFTHRPCSHPRLEGQEFCIKHILEDKNAPFKQCSYISTKNGKRCPTAAPKPEKKDGVSFCAEH [N47T],-0.057 ± 0.083
20,CAFTHRPCSHPRLEGQEFCIKHILEDKNAPFKQCSYISTKNGKRCPLAAPKPEKKDGVSFCAEH [N47L],-0.053 ± 0.047
21,CAFTHRPCSHPRLEGQEFCIKHILEDKNAPFKQCSYISTKNGKRCPFAAPKPEKKDGVSFCAEH [N47F],0.006 ± 0.086

row,Variant,abundance fitness
1,CAFTHRPCSHPRLEGQEFCIKHILEDKNAPFKQCSYISTKNGKRCPYAAPKPEKKDGVSFCAEH [N47Y],-0.132 ± 0.083
2,CAFTHRPCSHPRLEGQEFCIKHILEDKNAPFKQCSYISTKNGKRCPIAAPKPEKKDGVSFCAEH [N47I],-0.107 ± 0.078
3,CAFTHRPCSHPRLEGQEFCIKHILEDKNAPFKQCSYISTKNGKRCPVAAPKPEKKDGVSFCAEH [N47V],-0.063 ± 0.047
4,CAFTHRPCSHPRLEGQEFCIKHILEDKNAPFKQCSYISTKNGKRCPKAAPKPEKKDGVSFCAEH [N47K],-0.076 ± 0.067
5,CAFTHRPCSHPRLEGQEFCIKHILEDKNAPFKQCSYISTKNGKRCPAAAPKPEKKDGVSFCAEH [N47A],-0.002 ± 0.059
6,CAFTHRPCSHPRLEGQEFCIKHILEDKNAPFKQCSYISTKNGKRCPQAAPKPEKKDGVSFCAEH [N47Q],0.061 ± 0.079
7,CAFTHRPCSHPRLEGQEFCIKHILEDKNAPFKQCSYISTKNGKRCPSAAPKPEKKDGVSFCAEH [N47S],-0.035 ± 0.064
8,CAFTHRPCSHPRLEGQEFCIKHILEDKNAPFKQCSYISTKNGKRCPPAAPKPEKKDGVSFCAEH [N47P],-0.511 ± 0.073
9,CAFTHRPCSHPRLEGQEFCIKHILEDKNAPFKQCSYISTKNGKRCPHAAPKPEKKDGVSFCAEH [N47H],-0.118 ± 0.079
10,CAFTHRPCSHPRLEGQEFCIKHILEDKNAPFKQCSYISTKNGKRCPWAAPKPEKKDGVSFCAEH [N47W],-0.079 ± 0.061
11,CAFTHRPCSHPRLEGQEFCIKHILEDKNAPFKQCSYISTKNGKRCPGAAPKPEKKDGVSFCAEH [N47G],-0.076 ± 0.073
12,CAFTHRPCSHPRLEGQEFCIKHILEDKNAPFKQCSYISTKNGKRCLNAAPKPEKKDGVSFCAEH [P46L],-0.079 ± 0.042
13,CAFTHRPCSHPRLEGQEFCIKHILEDKNAPFKQCSYISTKNGKRCMNAAPKPEKKDGVSFCAEH [P46M],-0.1 ± 0.074
14,CAFTHRPCSHPRLEGQEFCIKHILEDKNAPFKQCSYISTKNGKRCQNAAPKPEKKDGVSFCAEH [P46Q],-0.1 ± 0.1
15,CAFTHRPCSHPRLEGQEFCIKHILEDKNAPFKQCSYISTKNGKRCSNAAPKPEKKDGVSFCAEH [P46S],-0.049 ± 0.04
16,CAFTHRPCSHPRLEGQEFCIKHILEDKNAPFKQCSYISTKNGKRCTNAAPKPEKKDGVSFCAEH [P46T],-0.049 ± 0.056
17,CAFTHRPCSHPRLEGQEFCIKHILEDKNAPFKQCSYISTKNGKRCWNAAPKPEKKDGVSFCAEH [P46W],-0.024 ± 0.062
18,CAFTHRPCSHPRLEGQEFCIKHILEDKNAPFKQCSYISTKNGKRCYNAAPKPEKKDGVSFCAEH [P46Y],-0.105 ± 0.065
19,CAFTHRPCSHPRLEGQEFCIKHILEDKNAPFKQCSYISTKNGKRCRNAAPKPEKKDGVSFCAEH [P46R],-0.042 ± 0.043
20,CAFTHRPCSHPRLEGQEFCIKHILEDKNAPFKQCSYISTKNGKRCVNAAPKPEKKDGVSFCAEH [P46V],-0.069 ± 0.068
21,CAFTHRPCSHPRLEGQEFCIKHILEDKNAPFKQCSYISTKNGKRCNNAAPKPEKKDGVSFCAEH [P46N],-0.014 ± 0.062

# Source: the Human Domainome abundance scans (Beltran et al. 2025)
